# Experimental data taken from the supplement of paper PMC10567573.
# B1: FBF1 (parent)
# chain: LQRASILDMRRDHEEQLQRLKLLK
# B2: RHOBTB3 (parent)
# chain: STTEGIQLAKELGATYLELHSLDD
# Variants of: B1
# Experiment: protein stability index of a GFP-peptide fusion (GPS, HEK-293T) (PSI 1-6); higher = more stable
# Conditions: c terminus: a fixed tail appended
# 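Further: lentivirally expressed fusions sorted by FACS into six bins by GFP to DsRed ratio, PSI derived from sequencing read proportions per bin multiplied by bin number.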
row,Variant,protein stability index
1,L20I,3.3
2,L20D,4.45
3,L20W,2.78
4,L20M,4
5,L20F,3.06
6,L20H,3.96
7,L20R,4.13
8,L20C,4.17
9,L20K,4.1
10,L20N,4.22
11,L20A,3.79
12,L20Y,3.83
13,L20Q,4.33
14,L20S,4.11
15,L20E,4.49
16,L20P,4.21
17,L20V,3.79
18,L20G,4.34
19,L20T,4.09
20,L23E,4.8
21,L23M,4.21
22,L23C,4.09
23,L23P,3.89

row,Variant,protein stability index
1,L23N,4.54
2,L23R,3.94
3,L23V,3.69
4,L23Y,3.12
5,L23Q,4.15
6,L23A,4.14
7,L23I,3.88
8,L23G,3.94
9,L23F,3.88
10,L23K,4.22
11,L23H,4.26
12,L23S,4.42
13,L23D,4.62
14,L23W,3
15,L23T,4.03
16,Q18C,3.1
17,Q18W,2.45
18,Q18S,3.19
19,Q18D,3.58
20,Q18A,3.7
21,Q18P,3.26
22,Q18V,3.11
23,Q18N,3.6

row,Variant,protein stability index
1,Q18L,2.92
2,Q18K,3.51
3,Q18E,3.3
4,Q18R,3.37
5,Q18I,2.47
6,Q18H,3.02
7,Q18Y,2.78
8,Q18T,3.36
9,Q18M,2.86
10,Q18G,3.79
11,Q18F,2.19
12,K21W,2.85
13,K21H,3.29
14,K21E,4.02
15,K21M,3.55
16,K21N,3.57
17,K21F,2.85
18,K21R,3.28
19,K21Y,2.98
20,K21S,3.21
21,K21Q,3.18
22,K21C,2.65
23,K21T,3.38

row,Variant,protein stability index
1,K21A,3.59
2,K21P,4.75
3,K21V,3.07
4,K21I,2.96
5,K21D,3.88
6,K21L,3.01
7,K21G,3.49
8,L22S,4.21
9,L22G,3.44
10,L22M,3.44
11,L22F,3.5
12,L22D,3.63
13,L22T,4.35
14,L22P,4.24
15,L22R,3.74
16,L22I,3.77
17,L22W,3.27
18,L22A,3.18
19,L22V,3.92
20,L22Q,4.27
21,L22K,3.74
22,L22Y,3.15
23,L22N,4.4

row,Variant,protein stability index
1,L22H,4.1
2,L22E,4.33
3,L22C,3.94
4,L17W,2.96
5,L17Y,3.55
6,R19H,2.78
7,R19W,2.25
8,R19L,2.22
9,R19I,2.11
10,R19V,2.48
11,R19A,3.48
12,R19K,3.14
13,R19Q,3.33
14,R19D,4.26
15,R19T,2.85
16,R19S,3.48
17,R19M,3.03
18,R19Y,2.72
19,R19F,1.69
20,R19G,3.75
21,R19C,2.65
22,R19P,3.75
23,R19N,3.89

row,Variant,protein stability index
1,R19E,4.25
2,K24M,4.03
3,K24T,2.87
4,K24C,1.98
5,K24P,3.55
6,K24Y,2.81
7,K24E,3.52
8,K24W,2.1
9,K24A,2.19
10,K24G,3.2
11,K24R,3.3
12,K24L,1.87
13,K24V,1.92
14,K24Q,2.68
15,K24S,2.82
16,K24H,3.44
17,K24N,3.55
18,K24D,4.12
19,K24F,2.65
20,K24I,2.28

# Variants of: B2
# Experiment: as above
# Conditions: c terminus: a fixed tail appended
row,Variant,protein stability index
1,S21C,3.14
2,S21E,3.93
3,S21V,2.93
4,S21N,4
5,S21K,3.02
6,S21D,4.49
7,S21F,1.64
8,S21T,3.79
9,S21A,2.93
10,G13T,2.72
11,G13D,4.31
12,G13P,4.81
13,G13V,2.52
14,G13N,2.64
15,G13Y,1.42
16,G13I,2.79
17,G13M,1.66
18,G13H,2.09
19,G13R,1.66
20,L12P,4.42
21,L12C,3.96
22,L12Y,4.81
23,L12S,4.92
24,L12I,3.92
25,L12K,5.07

row,Variant,protein stability index
1,L12V,4.43
2,L12F,3.89
3,L12G,4.89
4,S1Q,4.18
5,S1M,3.49
6,S1C,2.86
7,S1V,3.06
8,S1P,3.63
9,S1H,2.81
10,S1R,3.64
11,S1T,3.56
12,T15K,4.33
13,T15N,4.72
14,T15G,3.97
15,T15F,2.59
16,T15L,2.1
17,T15H,2.69
18,T15D,4.41
19,T2C,3.31
20,T2V,2.81
21,T2A,3.58
22,T2H,3.68
23,T2D,4.43
24,T2E,4.33
25,T2Y,2.37

row,Variant,protein stability index
1,T2M,2.8
2,T2I,2.07
3,L17S,4.61
4,L17V,4.15
5,L17Q,4.74
6,L17T,4.82
7,L17K,4.83
8,L17N,4.6
9,Y16I,3.47
10,Y16F,3.27
11,Y16P,5.66
12,Y16G,4.83
13,Y16D,3.29
14,Y16R,4.18
15,Q7V,3.54
16,Q7T,3.68
17,Q7C,3.49
18,Q7L,2.95
19,Q7H,3.99
20,Q7K,3.96
21,Q7R,2.19
22,Q7P,3.65
23,Q7S,4.24
24,Q7G,3.36
25,Q7E,3.71

row,Variant,protein stability index
1,Q7A,3.7
2,D24H,2.44
3,D24Y,2.7
4,D24N,2.16
5,D24R,2.26
6,D24A,2.17
7,D24M,1.38
8,D24E,3.35
9,L8Q,5.2
10,L8Y,4.97
11,L8F,4.24
12,L8N,4.57
13,L8V,4.44
14,L8S,4.58
15,L8I,4.41
16,L8P,4.92
17,L8C,3.94
18,I6Y,3.22
19,I6M,3.01
20,I6K,3.94
21,I6C,5.12
22,I6H,4.62
23,I6G,4.9
24,I6V,4.05
25,I6L,2.87

row,Variant,protein stability index
1,I6P,4.31
2,D23S,3
3,D23V,2.29
4,D23P,3.66
5,D23Q,3.55
6,D23A,2.43
7,D23Y,2.42
8,D23C,1.87
9,E4V,3.1
10,E4D,3.44
11,E4L,1.83
12,E4F,2.29
13,E4N,3.58
14,E4K,4.24
15,E4C,1.66
16,E4M,2.27
17,E4G,3.98
18,E4S,3.79
19,E4A,3.66
20,E4P,3.65
21,E4W,2.58
22,E18A,3.22
23,E18L,2.41
24,E18P,3.97
25,E18Y,2.57

row,Variant,protein stability index
1,E18F,2
2,E18H,3.07
3,E18I,1.86
4,E18Q,3.39
5,E18V,2.38
6,A14P,4.28
7,A14I,3.31
8,A14Y,3.7
9,A14E,4.25
10,A14W,1.75
11,A14Q,3.28
12,A14D,2.87
13,A14V,3.85
14,G5H,3.26
15,G5C,3.02
16,G5A,3.23
17,G5N,4.27
18,G5S,3.56
19,G5W,1.56
20,G5E,3.31
21,H20Q,3.13
22,H20I,1.76
23,H20S,3.44
24,H20W,1.93
25,H20N,4.46

row,Variant,protein stability index
1,H20A,2.73
2,H20C,2.68
3,H20T,3.15
4,E11H,4.34
5,E11A,1.53
6,E11P,3.92
7,E11M,3.19
8,E11F,2.56
9,E11Y,2.88
10,E11Q,3.89
11,E11N,3.84
12,E11C,3.42
13,T3S,4.02
14,T3V,3.19
15,T3W,1.84
16,T3G,4.01
17,T3N,2.9
18,T3D,3.97
19,T3K,3.42
20,L22V,4.3
21,L22H,4.62
22,L22T,4.15
23,L22W,3.45
24,L22Q,4.91
25,L22P,4.54

row,Variant,protein stability index
1,L22R,5.07
2,L22C,4.01
3,K10E,4.35
4,K10R,2.99
5,K10S,3.13
6,A9K,3.6
7,A9F,2.28
8,A9Y,3.12
9,A9V,2.53
10,A9M,1.74
11,A9T,4.21
12,A9G,4.34
13,A9W,2.64
14,A9P,4.49
15,A9R,3.01
16,L19P,5.37
17,L19W,4.68
18,L19E,4.76
19,L19I,2.38
20,L19V,4.68
21,L19F,4.21
22,L19C,4.71
23,L19H,5.02
24,L19A,4.63
